Measurements taken from patent publication US20240344138A1, “TARGETED THERAPIES IN CANCER” (Feng Biosciences, Inc, priority 2021, published 2024).

Key:
[1] = tested on: platinum-resistant or platinum-sensitive recurrent ovarian cancer; experiment: Clinical trial of PARP inhibitor and navicixizumab in PARP naive and PARP resistant cohorts, ORR by TME phenotype; type: in vivo, human
Procedure: A clinical trial is run to determine whether ovarian cancer tumor microenvironment phenotypes correlate to clinical responses when patients are treated with a PARP inhibitor, and navicixizumab in PARP naïve patients or patients that previously progressed on PARP inhibitor. The analysis includes samples from two different cohorts (one consisting of PARP inhibitor naïve patients and one consisting of PARP resistant patients). 40 patients from each cohort are randomized to 2 different treatment arms (20 patients in each arm). Patients are randomized to receive either a PARP inhibitor in combination with navicixizumab or PARP inhibitor monotherapy (PARP naïve cohort) or PARP inhibitor in combination with navicixizumab or navicixizumab monotherapy (PARP resistant). RNA gene signatures are analyzed from tumor samples acquired before the treatments and TME phenotypes are determined. Patients are followed for clinical response.
Ovarian cancer patients are randomized to receiving a regimen of PARP inhibitor (Olaparib, Rucaparib, Niraparib, etc.) plus navicixizumab, PARP monotherapy (PARP naive) or Navicixizumab monotherapy. The combination of PARP inhibitor/Navicixizumab increases overall response rate in patients with recurrent ovarian cancer compared to navicixizumab alone in both the PARP naive and PARP resistant cohorts as shown in TABLE 35. […] Eighty (80) total patients are enrolled, 20 in each of the treatment groups across the two cohorts with equal representation across the 4 stromal phenotypes (5 in each phenotype per treatment group). The correlation between each TME phenotype is tested against clinical outcome data. In immune suppressed (IS), and angiogenic (A) patients the use of the regimen of PARPi/Navicixizumab confers benefit in comparison to patients classified to immune active (IA) and immune desert (ID) TME phenotype classes as shown in the TABLE 36.

[2] = tested on: platinum-resistant or platinum-sensitive recurrent triple negative breast cancer; experiment: Clinical trial of PARP inhibitor, immune checkpoint inhibitor and navicixizumab, ORR by TME phenotype; type: in vivo, human
Procedure: A clinical trial is run to determine whether the triple negative breast cancer (TNBC) tumor microenvironment phenotypes correlate to clinical responses when patients are treated with a PARP inhibitor, an immune checkpoint inhibitor, and Navicixizumab after recurrence on platinum-based chemotherapy. The analysis includes samples from two different cohorts (one consisting of platinum-sensitive patients and one consisting of platinum-resistant patients). 40 patients from each cohort are randomized to 2 different treatment arms (20 patients in each arm). Patients are randomized to receive either (i) a PARP inhibitor and an immune checkpoint inhibitor or (ii) a PARP inhibitor, an immune checkpoint inhibitor and Navicixizumab. RNA gene signatures are analyzed from tumor samples acquired before the treatments and TME phenotypes are determined. Patients are followed for clinical response.
TNBC patients are randomized to receiving a regimen of PARP inhibitor (olaparib, rucaparib, niraparib, etc.) plus an immune checkpoint inhibitor (anti-PD-(L)1—i.e., an inhibitor to PD-1 or PD-L1) therapy, or a regimen of PARP inhibitor/immune checkpoint inhibitor/Navicixizumab. The combination of PARP inhibitor/immune checkpoint inhibitor/Navicixizumab increases overall response rate in patients with TNBC compared to the regimen of PARP inhibitor/immune checkpoint inhibitor alone in both the platinum-sensitive and platinum-resistant cohorts as shown in TABLE 37. […] Eighty (80) total patients are enrolled, 20 in each of the treatment groups across the two cohorts with equal representation across the 4 stromal phenotypes (5 in each phenotype per treatment group). The correlation between each TME phenotype is tested against clinical outcome data. In immune active (IA), immune suppressed (IS), and angiogenic (A) patients the use of the regimen of PARPi/immune checkpoint inhibitor/Navicixizumab confers benefit in comparison to patients classified to immune desert (ID) TME phenotype classes as shown in the TABLE 38.

[3] = PARP resistant cohort, n = 20 per treatment group

B1: PARPi/Navicixizumab (antibody, chains of the INN, looked up, V domains shown)
VH: QVQLVQSGAEVKKPGASVKISCKASGYSFTAYYIHWVKQAPGQGLEWIGYISNYNRATNYNQKFKGRVTFTTDTSTSTAYMELRSLRSDDTAVYYCARDYDYDVGMDYWGQGTLVTVSS
VL: DIVMTQSPDSLAVSLGERATISCRASESVDNYGISFMKWFQQKPGQPPKLLIYAASNQGSGVPDRFSGSGSGTDFTLTISSLQAEDVAVYYCQQSKEVPWTFGGGTKVEIK
VH2: QVQLVQSGAEVKKPGASVKVSCKASGYTFTNYWMHWVRQAPGQGLEWMGDINPSNGRTSYKEKFKRRVTLSVDKSSSTAYMELSSLRSEDTAVYFCTIHYDDKYYPLMDYWGQGTLVTVSS
VL2: DIVMTQSPDSLAVSLGERATISCRASESVDNYGISFMKWFQQKPGQPPKLLIYAASNQGSGVPDRFSGSGSGTDFTLTISSLQAEDVAVYYCQQSKEVPWTFGGGTKVEIK
modifications: with PARP inhibitor
Overall response rate (ORR) ([1]; PARP naiive cohort, n = 20 per treatment group): 65%
Overall response rate (ORR) [1, 3]: 40%

B2: PARPi/Immune Checkpoint Inhibitor/Navixicizumab (antibody, chains of the INN, looked up, V domains shown)
VH: QVQLVQSGAEVKKPGASVKISCKASGYSFTAYYIHWVKQAPGQGLEWIGYISNYNRATNYNQKFKGRVTFTTDTSTSTAYMELRSLRSDDTAVYYCARDYDYDVGMDYWGQGTLVTVSS
VL: DIVMTQSPDSLAVSLGERATISCRASESVDNYGISFMKWFQQKPGQPPKLLIYAASNQGSGVPDRFSGSGSGTDFTLTISSLQAEDVAVYYCQQSKEVPWTFGGGTKVEIK
VH2: QVQLVQSGAEVKKPGASVKVSCKASGYTFTNYWMHWVRQAPGQGLEWMGDINPSNGRTSYKEKFKRRVTLSVDKSSSTAYMELSSLRSEDTAVYFCTIHYDDKYYPLMDYWGQGTLVTVSS
VL2: DIVMTQSPDSLAVSLGERATISCRASESVDNYGISFMKWFQQKPGQPPKLLIYAASNQGSGVPDRFSGSGSGTDFTLTISSLQAEDVAVYYCQQSKEVPWTFGGGTKVEIK
modifications: with PARP inhibitor and checkpoint inhibitor
Overall response rate (ORR) ([2]; Platinum-resistant cohort, n = 20 per treatment group): 45%

B3: Navixicizumab (antibody, chains of the INN, looked up, V domains shown)
VH: QVQLVQSGAEVKKPGASVKISCKASGYSFTAYYIHWVKQAPGQGLEWIGYISNYNRATNYNQKFKGRVTFTTDTSTSTAYMELRSLRSDDTAVYYCARDYDYDVGMDYWGQGTLVTVSS
VL: DIVMTQSPDSLAVSLGERATISCRASESVDNYGISFMKWFQQKPGQPPKLLIYAASNQGSGVPDRFSGSGSGTDFTLTISSLQAEDVAVYYCQQSKEVPWTFGGGTKVEIK
VH2: QVQLVQSGAEVKKPGASVKVSCKASGYTFTNYWMHWVRQAPGQGLEWMGDINPSNGRTSYKEKFKRRVTLSVDKSSSTAYMELSSLRSEDTAVYFCTIHYDDKYYPLMDYWGQGTLVTVSS
VL2: DIVMTQSPDSLAVSLGERATISCRASESVDNYGISFMKWFQQKPGQPPKLLIYAASNQGSGVPDRFSGSGSGTDFTLTISSLQAEDVAVYYCQQSKEVPWTFGGGTKVEIK
Overall response rate (ORR) [1, 3]: 25%

B4: PARPi/Navicixumab (antibody, chains of the INN, looked up, V domains shown)
VH: QVQLVQSGAEVKKPGASVKISCKASGYSFTAYYIHWVKQAPGQGLEWIGYISNYNRATNYNQKFKGRVTFTTDTSTSTAYMELRSLRSDDTAVYYCARDYDYDVGMDYWGQGTLVTVSS
VL: DIVMTQSPDSLAVSLGERATISCRASESVDNYGISFMKWFQQKPGQPPKLLIYAASNQGSGVPDRFSGSGSGTDFTLTISSLQAEDVAVYYCQQSKEVPWTFGGGTKVEIK
VH2: QVQLVQSGAEVKKPGASVKVSCKASGYTFTNYWMHWVRQAPGQGLEWMGDINPSNGRTSYKEKFKRRVTLSVDKSSSTAYMELSSLRSEDTAVYFCTIHYDDKYYPLMDYWGQGTLVTVSS
VL2: DIVMTQSPDSLAVSLGERATISCRASESVDNYGISFMKWFQQKPGQPPKLLIYAASNQGSGVPDRFSGSGSGTDFTLTISSLQAEDVAVYYCQQSKEVPWTFGGGTKVEIK
modifications: with PARP inhibitor
Overall response rate (ORR) ([1]; PARP naive cohort, TME phenotype A (n = 5)): 100
Overall response rate (ORR) ([1]; PARP naive cohort, TME phenotype IA (n = 5)): 40
Overall response rate (ORR) ([1]; PARP naive cohort, TME phenotype ID (n = 5)): 40
Overall response rate (ORR) ([1]; PARP naive cohort, TME phenotype IS (n = 5)): 80
Overall response rate (ORR) ([1]; PARP resistant cohort, TME phenotype A (n = 5)): 60
Overall response rate (ORR) ([1]; PARP resistant cohort, TME phenotype IA (n = 5)): 20
Overall response rate (ORR) ([1]; PARP resistant cohort, TME phenotype ID (n = 5)): 20
Overall response rate (ORR) ([1]; PARP resistant cohort, TME phenotype IS (n = 5)): 60

B5: PARPi/immune checkpoint inhibitor/Navicixumab (antibody, chains of the INN, looked up, V domains shown)
VH: QVQLVQSGAEVKKPGASVKISCKASGYSFTAYYIHWVKQAPGQGLEWIGYISNYNRATNYNQKFKGRVTFTTDTSTSTAYMELRSLRSDDTAVYYCARDYDYDVGMDYWGQGTLVTVSS
VL: DIVMTQSPDSLAVSLGERATISCRASESVDNYGISFMKWFQQKPGQPPKLLIYAASNQGSGVPDRFSGSGSGTDFTLTISSLQAEDVAVYYCQQSKEVPWTFGGGTKVEIK
VH2: QVQLVQSGAEVKKPGASVKVSCKASGYTFTNYWMHWVRQAPGQGLEWMGDINPSNGRTSYKEKFKRRVTLSVDKSSSTAYMELSSLRSEDTAVYFCTIHYDDKYYPLMDYWGQGTLVTVSS
VL2: DIVMTQSPDSLAVSLGERATISCRASESVDNYGISFMKWFQQKPGQPPKLLIYAASNQGSGVPDRFSGSGSGTDFTLTISSLQAEDVAVYYCQQSKEVPWTFGGGTKVEIK
modifications: with PARP inhibitor and checkpoint inhibitor
Overall response rate (ORR) ([2]; Platinum-resistant cohort, TME phenotype A (n = 5)): 40
Overall response rate (ORR) ([2]; Platinum-resistant cohort, TME phenotype IA (n = 5)): 60
Overall response rate (ORR) ([2]; Platinum-resistant cohort, TME phenotype ID (n = 5)): 0
Overall response rate (ORR) ([2]; Platinum-resistant cohort, TME phenotype IS (n = 5)): 80
Overall response rate (ORR) ([2]; Platinum-sensitive cohort, TME phenotype A (n = 5)): 100
Overall response rate (ORR) ([2]; Platinum-sensitive cohort, TME phenotype IA (n = 5)): 80
Overall response rate (ORR) ([2]; Platinum-sensitive cohort, TME phenotype ID (n = 5)): 60
Overall response rate (ORR) ([2]; Platinum-sensitive cohort, TME phenotype IS (n = 5)): 80

B6: PARPi/Immune Checkpoint Inhibitor/Navicixizumab (antibody, chains of the INN, looked up, V domains shown)
VH: QVQLVQSGAEVKKPGASVKISCKASGYSFTAYYIHWVKQAPGQGLEWIGYISNYNRATNYNQKFKGRVTFTTDTSTSTAYMELRSLRSDDTAVYYCARDYDYDVGMDYWGQGTLVTVSS
VL: DIVMTQSPDSLAVSLGERATISCRASESVDNYGISFMKWFQQKPGQPPKLLIYAASNQGSGVPDRFSGSGSGTDFTLTISSLQAEDVAVYYCQQSKEVPWTFGGGTKVEIK
VH2: QVQLVQSGAEVKKPGASVKVSCKASGYTFTNYWMHWVRQAPGQGLEWMGDINPSNGRTSYKEKFKRRVTLSVDKSSSTAYMELSSLRSEDTAVYFCTIHYDDKYYPLMDYWGQGTLVTVSS
VL2: DIVMTQSPDSLAVSLGERATISCRASESVDNYGISFMKWFQQKPGQPPKLLIYAASNQGSGVPDRFSGSGSGTDFTLTISSLQAEDVAVYYCQQSKEVPWTFGGGTKVEIK
modifications: with PARP inhibitor and checkpoint inhibitor
Overall response rate (ORR) ([2]; Platinum-sensitive cohort, n = 20 per treatment group): 80%
